Experimental data taken from the DeepSol protein solubility set.

Assay: soluble on expression in E. coli; label from the status in PepcDB or PDB records

Row | Sequence | soluble on expression in E. coli
1 | MKALRSSSRLSRWREWAAPLWVGCNFSAWMRLLIRNRFAVHHSRWHFAVLYTFLSMVNSCLGLWQKIVFGRRVAETVIADPPIFIVGHWRTGTTLLHELLVVDDRHTGPTGYECLAPHHFLLTEWFAPYVEFLVSKHRAMDNMDLSLHHPQEDEFVWCMQGLPSPYLTIAFPNRPPQYEEYLDLEQVAPRELEIWKRTLFRFVQQVYFRRRKTVILKNPTHSFRIKVLLEVFPQAKFIHIVRDPYVVYPSTIHLHKALYRIHGLQQPTFDGLDDKVVSTYVDLYRKLDEGRELVDPTRFYELRYEDLIGDPEGQLRRLYQHLGLGDFECYLPRLRQYLADHADYKTNSYQLTVEQRAIVDEHWGEIIDRYGYDRHTPEPARLRPAVGG | not soluble
2 | GSEFAIDPNEPTYCLCNQVSYGEMIGCDNEQCPIEWFHFSCVSLTYKPKGKWYCPKCRGDNE | soluble
3 | MAHHHHHHMGTVSPARRVASPGKGKRSPSRGETPSEGRTRRAGSSPSSRPGMQTASQRAARKKEVRRLRDAELLLDEAPLSMVGERAQDALEAMLRALDIRRNASATPKKMQPVWHHVKALVVTANREGLRRAYAAFPAEEGHYFFGKALSTLEYSASTVNTAADGGEFAECPLLLSHLMEATLNNIAFQQYIAHEPPEAILKTLQRALKVQHHQAFRTLTLYNMAVAFLAARRYEDATEFVARCSQVAEVCLELEVSLTREISSLYKEYHTMVATHAIMCHHLLAGLAAWSGESDMEVYHAQLALCCATKFLCRG | not soluble
4 | MAHHHHHHSLDASTLFKKVKVKRVLGSLEQQIDDITTDSRTAREGSIFVASVGYTVDSHKFCQNVADQGCKLVVVNKEQSLPANVTQVVVPDTLRVASILAHTLYDYPSHQLVTFGVTGTNGKTSIATMIHLIQRKLQKNSAYLGTNGFQINETKTKGANTTPETVSLTKKIKEAVDAGAESMTLEVSSHGLVLGRLRGVEFDVAIFSNLTQDHLDFHGTMEAYGHAKSLLFSQLGEDLSKEKYVVLNNDDSFSEYLRTVTPYEVFSYGIDEEAQFMAKNIQESLQGVSFDFVTPFGTYPVKSPYVGKFNISNIMAAMIAVWSKGTSLETIIKAVENLEPVEGRLEVLDPSLPIDLIIDYAHTADGMNKLIDAVQPFVKQKLIFLVGMAGERDLTKTPEMGRVACRADYVIFTPDNPANDDPKMLKAELAKGATHQNYIEFDDRAEGIKHAIDIAEPGDTVVLASKGREPYQIMPGHIKVPHRDDLIGLEAAYKKFGGGPVDQEG | soluble
5 | MSDAIVVGAGPNGLAAAVALARRGLKVTVLEAADEIGGGTRTSELTVPGLLHDHCSAVHPLGVGSPFLRTLGLERYGVTWAWPDVDLAHPLDGGRAGVLVRSMERTVRGLGPDGPAWERLFAPLAEDFDALTEDLLRPVPHLPAHPVELARFGLRALQPATTVARRWRGAEARALFAGAAAHLMHPLTGPTSSAVGLMLVGAAHRFGWPVARGGSRTITDALAALLAQLGGTIETGVRVDSLDQLAAARIVMLDTAPGAAARICGDRLPGRVRSAYEGWRHGPAAFKVDLAVQDGIPWTHEACRRAGTVHLGGTLEEVVRTEAQTAGGRMPERPFVLVGQQYLADPSRSRGDVHPIWAYAHVPHGYPGDATEAVLRQIERFAPGFRDRIVGIAARSTAELARSNTNFVGGDIVGGANTARQVALRPRVALDPYSTGIPGVYLCSAATPPGAGVHGMCGANAARSALRYLDRLEHHHHHH | not soluble
6 | MSLKVLIKTDLVLGAPKTLRDVYIGIDEGQIKVISKEKPEDYDYAEYVIGGKNRVVAPGFVTTHSFLYLYPFRYRVFSGKANAFQLMSTLTPNDIYYFSLMGAYHLLKTGVTTVVTSGPNLDMIARAISEVGLRPVLAVGVDCPDSKEDWEREFTTLYNRWSSKNENRVILRLCSNEYSKEVFELSQQYDFPVLLERFVSLENISGNPINVIGLGGGARKDLDIIKQKGFHLASTPSYEVSQFPLSQYKPSISLDLSPTFDIRHEVSTSITRLILTPEEALNAMTIWGLLQLKYNDRGVLENGKVADLVIFEVKEPPTFPLDYESPYESIVFNLSTPETVLVSGEAILDGGVPLNIGIKHIEKAIERLEDIDKKVTRPARYMEKDEGHHHHHH | not soluble
7 | MTSKTNMTSNKFAYDFFPWSNDTNSSQQIKNIKPPPKRSNRPTKRTTFTSEQVTLLELEFAKNEYICKDRRGELAQTIELTECQVKTWFQNRRTKKRSSELKFGTACSENKTSTKWYYDSKLLFCYPYKYLGCGEGSNSFESNENCLESCKPADQFSCGGNTGPDGVCFAHGDQGCKKGTVCVMGGMVGFCCDKKIQDEWNKENSPKCLKGQVVQFKQWFGMTPLIGRSCSHNFCPEKSTCVQGKWTAYCCQ | soluble
8 | MKILLRNALITNEGKTFPGSVMIDGAFISRIIEGELPADDNLSADEVIECSGLRLFPGCIDDQVHFREPGLTHKATIASESRAAVAGGVTSFMDMPNTNPPTTMWERLLEKRQIGADTAWANYGFFFGGTNDNIDEIKRVDKHLVPGLKLFLGSSTGNMLVDNKETLEKIFGECDLLIATHCEKEEIIRANKEHYKAKYGNDLDIHFHPLIRSEEACYRSSAEAVELAERMNARLHILHLSTEKELSLFRNDIPTAQKRITSEVCVHHLWFSDTDYGRLGNRIKWNPAIKKESDREALRAAVRNGRIDIIATDHAPHLLREKEGSCLQAASGGPLVQHSLLALLELCNQGIFSIEEIVSKTAHIPATLFAIEKRGYIRPGYYADLVLVDPSSPHTVSADNILSLCGWSPFEGFTFSHSVAYTFVNGCLAYAKGRLAESRPTVHPLFFNR | soluble
9 | MSLARQNYHSEVEAAVNKQINIELYASYVYLSMSFYFDRDDVALPNIAKFFKEQSDEEREHATELMRVQNLRGGRVVLQDIQKPENDEWGTALKAFEAALALEKFNNESLLKLHSTAGNHNDAHLTDFIEEKYLDEQVKSINEFARMVANLKRVGPGVGEYVFDKEHFSD | soluble
10 | MSLDLPYLSPTPFIKPVPSFKKYSMGFYPIVDSSHWLEMLLPLGIKCIQLRIKEASQERLEEEIKRSVHLANQYNAALFINDHWELAIHYGAAGVHLGQEDLEKADVDRINRSGLFLGISTHCYYEVARAHALNPSYVACGPIYETTSKIMPFQAQGIARLERWRKTLRYPLVAIGGITLKNLSDVLKTKIDGVSVISAITKASAPLVAAKQFLTQMNESHNEGHHHHHH | not soluble
11 | SAPFDVIGPQEPILAVVGEDAELPCRLSPNVSAKGMELRWFREKVSPAVFVSREGQEQEGEEMAEYRGRVSLVEDHIAEGSVAVRIQEVKASDDGEYRCFFRQDENYEEAIVHLKVAALGSDPHISMKVQESGEIQLECTSVGWYPEPQVQWRTHRGEEFPSMSESRNPDEEGLFTVRASVIIRDSSMKNVSCCIRNLLLGQEKEVEVSIPASFFPRLT | not soluble
12 | MAHHHHHHMLCTFTTLHERIRILTDAHQLILPEELEAEFPDEAQLIKSMLAANPLQRPQIRKFLRQINKLIVALEAQESDEEAEKPPPPSPLDGTEHSESRNGNDEAATAALVDDSASALATATATSKLGNTPLSTSVAAASSSRGRPVAADLASGGHADSFSDVQDSFSSPLGEQKSRVALLPVFHSEAATGTSVAATSPMAATTSVHDTNAASAGKHVTRRGDSLASLHASTMVKRGNTYHHRRRGSASPNMEAEIGRLHICEMVATGSASRQGFFANDPYGLPTTPVMYTEDADLSTILKRDLQDRTVSAPD | not soluble
13 | GPLGSSIMKILLIGDSGVGKSCLLVRFVEDKFNPSFITTIGIDFKIKTVDINGKKVKLQLWDTAGQERFRTITTAYYRGAMGIILVYDVTDERTFTNIKQWFKTVNEHANDEAQLLLVGNKSDMETRVVTADQGEALAKELGIPFIESSAKNDDNVNEIFFTLAKLIQEKIDSN | soluble
14 | MKFGTVWKYYFTESLLKATIRTPSQLNLAPNALRPVLDQLCRLFPQNPTVQIRPIRLAGVRGEEIKAQASATQLIFHIHGGAFFLGSLNTHRALMTDLAARTQMQVIHVDYPLAPEHPYPEAIDAIFDVYQALLVQGIKPKDIIISGDSCGANLALALCLRLKQQPELMPSGLILMSPYLDLTLTSESLRFNQKHDALLSIEALQAGIKHYLTDDIQPGDPRVSPLFDDLDGLPPTLVQVGSKEILLDDSKRFREKAEQADVKVHFKLYTGMWHNFQMFNAWFPEAKQALADIAEFAHSLDLD | soluble
15 | HMTHIDDYSTWDIVKATQYGIYERCRELVEAGYDVRQPDKENVTLLHWAAINNRIDLVKYYISKGAIVDQLGGDLNSTPLHWATRQGHLSMVVQLMKYGADPSLIDGEGCSCIHLAAQFGHTSIVAYLIAKGQDVDMMDQNGMTPLMWAAYRTHSVDPTRLLLTFNVSVNLGDKYHKNTALHWAVLAGNTTVISLLLEAGANVDAQNIKGESALDLAKQRKNVWMINHLQEARQAKGYDN | soluble
16 | IKDFSYGARFNLSDQKDKLVDYGVEYNGFVAGVNQKVQGYSLGSIFGYRTDGYFTSEEEVKNSAAFNKAITGVGDIKYIDKDGDGKISAPNDLEYLGTTTPRYTFGLNLTAAWKGFDLGVLLQGVGKRNFYLSSEVMNPYYATWNNFSYKMHNDYWTPENPNAAFPRYYAGANHNYQISDHWLQNAAYVRLKNLQLGYTISPKLTKSWGIQRLRVYFSGDNLCEYSKLNDNFDPELSDINGYVYPIMRNFSFGINVTL | not soluble
17 | GSHMNQCPEHSQLTTLGVDGKEFPEVHLGQWYFIAGAAPTKEELATFDPVDNIVFNMAAGSAPMQLHLRATIRMKDGLCVPRKWIYHLTEGSTDLRTEGRPDMKTELFSSSCPGGIMLNETGQGYQRFLLYNRSPHPPEKCVEEFKSLTSCLDSKAFLLTPRNQEACELSNN | soluble
18 | MENTVDAKKDSTIAFTGGRILTMDSEQKYAEAVVIRGDRIAAVGGTYILKSFPDAEIRDLKNRYLLPAFIDSHNHLSSFGCFFPTWANLIGLTEKEAILKAIRRQVRKEPGTGWIVGFGWFDARMGGADLTKKDLDEVSSDRPVLLIQTTFHQSVVNTRALGLLGINQSTPDPRCGIIFRESDGTPTGVLVEYAQAPVFKLVMEADTETLADLIEARAKELLQFGITAIHDPGATPAAEAAYRQLHAEGRLPVSVLMMPHGETLLDNRLRDRLQGQVTGTGDERLRVGPIKLFADGATAETVAFSLKIGGQTINSGCYRDDFEEMLFAATEKGFRVCVHSFGNATTDAVLTAFENAALRAPAGFEMRPRLEHVTLINALQIRRLASMGGCACIQPQFLSRAQNTKQVMLEDGKWYAYGDLVKGGVIVASSSDDPGGFMDARDPIKGSVMGSTMSDGEGNVIFPDQVLPFEQWLWMYTAGGAYAGGQEKERGILKKGMVADLVILEGSLDSKNPTVVAETWAAGKQVYTKELEHHHHHH | not soluble
19 | MTNPLYTGHPFGTTVTEETLRAIFLPLTQWEDKYRQLILLGKQLPALPDECKAQAKEIAGCENRVWLGFTRSDNGTMHFFGDSEGRIVRGLLAVLLTAVEGKNAAELQARSPLALFDELGLRAQLSASRSQGLNALSEAIVAATHKG | not soluble
20 | MEEGSAIDYQRVPPLSGTHYASTVSAGFYEATPLLGSLVHTLEHGAVIVYYDPDEISPEARQSLREFSSVHTGTWRSVVAVPNPNDDPRATYVVTAWQHELTIDSYDAETVHAFLSEYLGRGPENPVRLEHHHHHH | soluble
